This series concerns the molecule itself. The experiment in a line: X-ray crystallography, homodimer in the crystal.

B1: recombinant SP-free Coprinus comatus Y3 protein (monomer) (other)
chain: QDPLSCYDNFGNRDVAACARFIDDFCDTLTPNIYRPRDNGQRCYVVNGHKCDFTVFNTNNGGSPIRASTPNCKTVLRAAANRCPTGGRGKINPSAPFLFAIDPNDGDCSTDF
modifications: pyroglutamic acid (PCA) formed from Gln19; four intramolecular disulfide bridges Cys24-Cys101, Cys36-Cys69, Cys61-Cys126, Cys44-Cys90
notes: also called recombinant Y3; mature recombinant Y3 protein
As to B1, the binding result is reported as “binds”.

The record behind these values is patent US20210094988A1 (UNIVERSITY OF FLORIDA RESEARCH FOUNDATION, published 2021).
